Test results published in patent US20210221869A1.

Biological target: M22 antibody (thyrotropin receptor autoantibody)
Assay: M22-blocking ELISA (KRONUS kit): fusion protein in 2-fold dilutions pre-incubated with peroxidase-M22, then added to the kit plate

IC50: 3 µg/mL
Substance: TSHR 21-282 D43A (N01) (Fc fusion)
